B1: IQUB (parent)
chain: CRNCINLQNEAQKRESFLKYKCLL
B2: KRT15 (parent)
chain: FGGGSTRGGSLLAGGGGFGGGSLS

Variants of: B1
Test: protein stability index of a GFP-peptide fusion (GPS, HEK-293T) (PSI 1-6); higher = more stable
Settings: c terminus: a fixed tail appended
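Also: lentivirally expressed fusions sorted by FACS into six bins by GFP to DsRed ratio, PSI derived from sequencing read proportions per bin multiplied by bin number.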

Protein stability index, by site and new letter:
N6: H 1.97; I 2.59; K 1.76; L 2.27; M 1.46; P 1.7; Q 2.25; R 2.09; S 2.37; T 1.72; V 1.88; W 1.9; Y 1.48
L7: A 1.75; C 2.13; D 2.31; E 2.27; F 1.68; G 2.36; H 1.55; I 1.79; K 1.95; M 2.39; N 2.26; P 2.21; Q 1.75; R 1.65; S 2.29; T 1.67; V 2.01; W 2.57; Y 1.86
Q8: A 1.63; C 2.9; D 1.13; E 2.53; F 1.59; G 1.57; H 2.08; I 1.72; K 1.38; L 3.13; N 1.87; P 1.68; R 2.17; S 2.82; T 1.61; V 2.12; W 2.46
N9: A 1.84; C 1.57; D 2.28; E 1.42; G 2.15; H 1.53; I 2.01; K 1.98; L 2.12; M 1.39; P 2.33; Q 1.49; R 2.42; S 1.95; T 1.33; V 1.53; W 2.72; Y 2.32
E10: A 1.52; C 1.71; D 1.63; F 2.7; G 1.68; H 2.56; I 1.35; K 2.09; L 1.65; M 2.14; N 1.94; P 1.37; Q 2.23; R 1.7; S 1.9; T 1.71
A11: C 1.59; D 2.08; E 2.19; H 1.66; I 1.82; K 1.78; L 1.98; M 2.25; N 1.56; P 1.71; Q 1.34; R 1.19; S 2.06; T 2.8; V 1.57; Y 1.69
Q12: A 2.34; C 1.81; D 1.87; E 2.29; F 2.23; G 1.75; H 1.75; I 2.58; K 2.06; M 1.5; N 1.69; P 2.83; R 1.96; S 1.31; T 1.71; V 2.12; W 2.31; Y 2.28
K13: A 1.54; C 1.17; D 1.58; E 1.29; F 2.35; G 2.04; H 2.74; I 2.01; L 2.79; M 1.8; N 1.85; P 2.02; Q 1.75; R 1.74; T 2.04; V 1.78; W 2.06; Y 1.73
R14: A 1.02; C 1.64; D 2.66; E 1.36; F 2.34; G 1.67; H 1.83; I 2.86; K 2.02; M 1.39; N 2.26; P 2.35; Q 1.89; S 2.56; T 1.84; V 2.36; W 1.86; Y 2.43
E15: A 2.85; C 1.47; D 2.13; F 2.57; G 2.37; H 2.75; K 1.92; L 2.77; M 3.62; N 2.51; P 2.05; Q 2.01; R 1.08; S 2.3; T 2.24; W 1.62; Y 2.04
S16: A 2.05; C 1.53; D 2.11; E 2.15; F 2.23; G 2.93; H 2.25; I 1.59; K 1.88; L 1.99; N 1.84; P 2.2; Q 2.06; R 2.62; T 1.59; V 2.4; W 1.69
F17: A 2.02; C 2.13; D 2.45; E 2.6; G 2.84; H 1.68; I 1.79; K 2.33; L 1.77; M 1.58; N 2.22; P 2.33; Q 1.5; R 2.65; S 2.08; T 2.74; V 2.25; W 1.58; Y 1.59
L18: A 1.57; C 2.6; D 1.63; E 2.25; F 2.79; G 2.9; H 2.23; I 1.51; K 2.15; M 2.72; N 2.27; P 2.11; Q 1.85; R 1.65; S 1.39; T 1.88; V 1.88; W 1.96; Y 1.38
K19: A 1.46; C 3.27; D 1.3; E 1.74; F 2.54; G 2.2; H 1.68; I 2.19; L 2.69; M 2.28; N 1.63; P 1.46; Q 1.85; R 1.56; T 2.23; W 1.01
Y20: A 2.34; C 3.65; D 2.11; E 2.17; F 1.66; G 3.06; H 1.69; K 2.46; L 2.14; M 2.66; N 2.96; P 1.89; Q 2.96; R 1.83; S 1.5; T 2.14; W 2.46
K21: A 1.16; C 1.77; D 2.06; E 1.75; F 1.74; G 2.7; H 2.47; I 2.28; L 1.38; M 1.76; N 1.47; P 1.74; Q 2.28; R 2.53; S 1.94; T 1.58; V 3.66; W 1.78; Y 1.51
C22: A 1.58; D 2.46; E 2.69; G 1.42; H 2.18; I 2.13; K 1.87; L 1.76; M 1.79; N 1.49; P 2.25; Q 2.33; R 1.3; S 1.65; T 1.41; V 1.73; W 2.01; Y 1.84
L23: A 1.5; C 2.98; D 2.7; E 1.75; F 2.53; G 2.03; H 1.6; I 2.25; M 1.77; N 2.12; P 2.69; Q 1.87; R 2.17; S 2.18; T 1.97; V 3.23; W 2.21; Y 2.05
L24: A 2.56; C 3.57; D 2.81; E 1.65; F 1.82; G 1.37; H 2.19; I 1.75; K 2.53; M 1.79; N 1.86; P 2.22; Q 1.74; R 1.82; S 3.46; T 1.8; V 1.27; W 1.46; Y 1.69

Variants of: B2
Test: as above
Settings: c terminus: a fixed tail appended

Protein stability index of substitutions, site by site:
F1: I 2.53; K 4.35
